# Measured values from patent publication US20240417436A1 (BRIGHT PEAK THERAPEUTICS, published 2024).
# Bridges are numbered along the chain shown (N, C = ends). Primed or numbered codes have the meaning given here. [ ]: non-standard residue; d: D form. Ygp = O-(8x polyethylene glycol-amino)-tyrosine; Yn3 = O-(9x polyethylene glycol-azido)-tyrosine; cleavable moiety, PEG9 = not defined here; PEG9″ = 9x polyethylene glycol; hSer = N[C@@H](CCO)C(=O)O; Nle = CCCC[C@H](N)C(=O)O
# T1: IL-2 receptor βγ complex on pan T cells (human, UniProt P14784 27-551; P31785 23-369)
# T1 sequence (looked up) 1: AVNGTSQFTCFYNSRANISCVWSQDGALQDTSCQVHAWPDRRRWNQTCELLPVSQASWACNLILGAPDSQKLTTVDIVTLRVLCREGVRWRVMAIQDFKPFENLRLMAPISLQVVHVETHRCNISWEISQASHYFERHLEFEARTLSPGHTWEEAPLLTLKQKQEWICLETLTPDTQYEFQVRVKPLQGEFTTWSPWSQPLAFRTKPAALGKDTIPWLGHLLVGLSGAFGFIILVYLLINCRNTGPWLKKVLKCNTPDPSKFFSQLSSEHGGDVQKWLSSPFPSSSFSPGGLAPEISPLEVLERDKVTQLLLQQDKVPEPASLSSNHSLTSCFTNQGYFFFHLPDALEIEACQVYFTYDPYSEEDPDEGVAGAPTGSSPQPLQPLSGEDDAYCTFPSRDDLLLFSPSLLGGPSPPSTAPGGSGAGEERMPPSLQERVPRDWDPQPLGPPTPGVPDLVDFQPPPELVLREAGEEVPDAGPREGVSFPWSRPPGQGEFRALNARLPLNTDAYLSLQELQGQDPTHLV
# T1 sequence (looked up) 2: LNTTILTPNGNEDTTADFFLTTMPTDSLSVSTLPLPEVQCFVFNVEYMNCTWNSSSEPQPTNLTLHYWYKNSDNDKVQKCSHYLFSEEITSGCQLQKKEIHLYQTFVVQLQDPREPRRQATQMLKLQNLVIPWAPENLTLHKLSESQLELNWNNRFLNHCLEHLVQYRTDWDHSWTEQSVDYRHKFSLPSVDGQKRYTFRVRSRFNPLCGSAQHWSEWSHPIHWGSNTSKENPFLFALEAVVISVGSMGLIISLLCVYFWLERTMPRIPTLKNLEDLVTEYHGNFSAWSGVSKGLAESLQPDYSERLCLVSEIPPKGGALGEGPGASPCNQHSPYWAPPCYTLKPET
# Biological target: T1, IL-2 receptor βγ complex on pan T cells
# Test: cell-based or functional assay
"Average EC50, pSTAT5 assay in pan T cells, intact molecule","Average EC50, pSTAT5 assay in pan T cells, MMP2 cleaved molecule",Binder
27.8 nM,–,"CMP-160 (ligand, linker N-26 via cleavable moiety, PEG9; ends not checked; also: cleavable moiety sequence not given here) APTSSSTKKTQLQLEHLLLDLQ[Nle]ILEGINNYKNPKLTR[Nle]L[hSer][Yn3]KF[Ygp][Nle]PKKATELKHLQCLEEELKPLEEVL[hSer]LAQSKNFHLRPRDLISNINVIVLELKGSETTF[hSer]CEYADETATIVEFLNRWITFSQSIISTLT"
–,3.59 nM,"CMP-161, MMP2 cleaved (ligand, not fully specified; ends and bridges not checked; also: before cut, residues 1..32 linked via PEG9 (Glu32 side chain)) PLGLAGAPTSSSTKKTQLQLEHLLLDLQ[Nle]ILEGINNYKNPKLTR[Nle]L[hSer][Yn3]KF[Ygp][Nle]PKKATELKHLQCLEEELKPLEEVL[hSer]LAQSKNFHLRPRDLISNINVIVLELKGSETTF[hSer]CEYADETATIVEFLNRWITFSQSIISTLT"
29.4 nM,–,"CMP-161 (ligand, linker N-32 via PEG9″; ends not checked) PLGLAGAPTSSSTKKTQLQLEHLLLDLQ[Nle]ILEGINNYKNPKLTR[Nle]L[hSer][Yn3]KF[Ygp][Nle]PKKATELKHLQCLEEELKPLEEVL[hSer]LAQSKNFHLRPRDLISNINVIVLELKGSETTF[hSer]CEYADETATIVEFLNRWITFSQSIISTLT"
–,2.21 nM,"CMP-160, MMP2 cleaved (ligand, ends and bridges not checked; also: cleavable moiety between Glu26 side chain and N-terminus (via PEG9) cut by MMP2, macrocycle opened, cut site not given here) APTSSSTKKTQLQLEHLLLDLQ[Nle]ILEGINNYKNPKLTR[Nle]L[hSer][Yn3]KF[Ygp][Nle]PKKATELKHLQCLEEELKPLEEVL[hSer]LAQSKNFHLRPRDLISNINVIVLELKGSETTF[hSer]CEYADETATIVEFLNRWITFSQSIISTLT"
–,0.758 nM,"CMP-162, MMP2 cleaved (ligand, not fully specified (residue 23); ends and bridges not checked; also: cleavable peptide on Lys23 cut by MMP2, remnant stays attached, cut site not given here) APTSSSTKKTQLQLEHLLLDLQKILNGINNYKNPKLTR[Nle]L[hSer][Yn3]KF[Ygp][Nle]PKKATELKHLQCLEEELKPLEEVL[hSer]LAQSKNFHLRPRDLISNINVIVLELKGSETTF[hSer]CEYADETATIVEFLNRWITFSQSIISTLT"
–,2.27 nM,"CMP-159, MMP2 cleaved (ligand, not fully specified (bridges); ends and bridges not checked; also: cleaved by MMP2 (macrocycle opened), cut site not given here) PLGLAGAPTSSSTKKTQLQLEHLLLDLE[Nle]ILNGINNYKNPKLTR[Nle]L[hSer][Yn3]KF[Ygp][Nle]PKKATELKHLQCLEEELKPLEEVL[hSer]LAQSKNFHLRPRDLISNINVIVLELKGSETTF[hSer]CEYADETATIVEFLNRWITFSQSIISTLT"
2.79 nM,–,"CMP-162 (ligand, not fully specified (residue 23); ends and bridges not checked; also: cleavable moiety on Lys23 side chain, structure not given here) APTSSSTKKTQLQLEHLLLDLQKILNGINNYKNPKLTR[Nle]L[hSer][Yn3]KF[Ygp][Nle]PKKATELKHLQCLEEELKPLEEVL[hSer]LAQSKNFHLRPRDLISNINVIVLELKGSETTF[hSer]CEYADETATIVEFLNRWITFSQSIISTLT"

# Biological target: T1, IL-2 receptor βγ complex on pan T cells
# Test: cell-based or functional assay
# Remark: another data set of the same source
"Average EC50, pSTAT5 assay in pan T cells, intact molecule","Average EC50, pSTAT5 assay in pan T cells, MMP2 cleaved molecule",Binder
94.7 nM,–,"CMP-300 (ligand, bridge N-23; not fully specified (N-terminus, bridges); ends not checked; also: cleavable peptide of the bridge not defined) APTSSSTKKTQLQLEHLLLDLQEILNGINNYKNPKLTR[Nle]L[hSer][Yn3]KF[Ygp][Nle]PKKATELKHLQCLEEELKPLEEVL[hSer]LAQSKNFHLRPRDLISNINVIVLELKGSETTF[hSer]CEYADETATIVEFLNRWITFSQSIISTLT"
180 nM,–,"CMP-301 (ligand, bridge N-23; not fully specified (N-terminus, bridges); ends not checked; also: cleavable peptide of the bridge not defined) APTSSSTKKTQLQLEHLLLDLQEILNGINNYKNPKLTR[Nle]L[hSer][Yn3]KF[Ygp][Nle]PKKATELKHLQCLEEELKPLEEVL[hSer]LAQSKNFHLRPRDLISNINVIVLELKGSETTF[hSer]CEYADETATIVEFLNRWITFSQSIISTLT"
–,0.61 nM,"CMP-164, MMP2 cleaved (ligand, not fully specified (residue 23, N-terminus); ends and bridges not checked; also: macrocycle (Lys23 side chain - cleavable peptide - glutaryl - Ala1) cut by MMP2, cut site not given here) APTSSSTKKTQLQLEHLLLDLQKILNGINNYKNPKLTR[Nle]L[hSer][Yn3]KF[Ygp][Nle]PKKATELKHLQCLEEELKPLEEVL[hSer]LAQSKNFHLRPRDLISNINVIVLELKGSETTF[hSer]CEYADETATIVEFLNRWITFSQSIISTLT"
53.4 nM,–,"CMP-169 (ligand, bridge 9-23; not fully specified (residue 9, bridges); ends not checked; also: cleavable peptide of the bridge not defined) APTSSSTKKTQLQLEHLLLDLQEILNGINNYKNPKLTR[Nle]L[hSer][Yn3]KF[Ygp][Nle]PKKATELKHLQCLEEELKPLEEVL[hSer]LAQSKNFHLRPRDLISNINVIVLELKGSETTF[hSer]CEYADETATIVEFLNRWITFSQSIISTLT"
–,0.76 nM,"CMP-163, MMP2 cleaved (ligand, not fully specified (residue 23, N-terminus); ends and bridges not checked; also: macrocycle (Lys23 side chain - cleavable peptide - PEG4 - glutaryl - Ala1) cut by MMP2, cut site not given here) APTSSSTKKTQLQLEHLLLDLQKILNGINNYKNPKLTR[Nle]L[hSer][Yn3]KF[Ygp][Nle]PKKATELKHLQCLEEELKPLEEVL[hSer]LAQSKNFHLRPRDLISNINVIVLELKGSETTF[hSer]CEYADETATIVEFLNRWITFSQSIISTLT"
–,1.73 nM,"CMP-300, MMP2 cleaved (ligand, ends and bridges not checked; also: cleavable moiety between Glu23 side chain and N-terminus cut by MMP2, macrocycle opened, cut site not given here) APTSSSTKKTQLQLEHLLLDLQEILNGINNYKNPKLTR[Nle]L[hSer][Yn3]KF[Ygp][Nle]PKKATELKHLQCLEEELKPLEEVL[hSer]LAQSKNFHLRPRDLISNINVIVLELKGSETTF[hSer]CEYADETATIVEFLNRWITFSQSIISTLT"
–,5.39 nM,"CMP-169, MMP2 cleaved (ligand, ends and bridges not checked; also: cleavable moiety between Lys9 and Glu23 side chains cut by MMP2, macrocycle opened, cut site not given here) APTSSSTKKTQLQLEHLLLDLQEILNGINNYKNPKLTR[Nle]L[hSer][Yn3]KF[Ygp][Nle]PKKATELKHLQCLEEELKPLEEVL[hSer]LAQSKNFHLRPRDLISNINVIVLELKGSETTF[hSer]CEYADETATIVEFLNRWITFSQSIISTLT"
